Molecular target: heat shock protein 70 (UniProt P0DMV8)
Experiment: co-immunoprecipitation (anti-Flag beads) and western blot, band densitometry
Conditions: beads incubated with celastrol for 10 min, room temperature; n = 3; parent: est. 0.73; read off a plot

UniProt P0DMV8, sequence (P0DMV8 whole entry): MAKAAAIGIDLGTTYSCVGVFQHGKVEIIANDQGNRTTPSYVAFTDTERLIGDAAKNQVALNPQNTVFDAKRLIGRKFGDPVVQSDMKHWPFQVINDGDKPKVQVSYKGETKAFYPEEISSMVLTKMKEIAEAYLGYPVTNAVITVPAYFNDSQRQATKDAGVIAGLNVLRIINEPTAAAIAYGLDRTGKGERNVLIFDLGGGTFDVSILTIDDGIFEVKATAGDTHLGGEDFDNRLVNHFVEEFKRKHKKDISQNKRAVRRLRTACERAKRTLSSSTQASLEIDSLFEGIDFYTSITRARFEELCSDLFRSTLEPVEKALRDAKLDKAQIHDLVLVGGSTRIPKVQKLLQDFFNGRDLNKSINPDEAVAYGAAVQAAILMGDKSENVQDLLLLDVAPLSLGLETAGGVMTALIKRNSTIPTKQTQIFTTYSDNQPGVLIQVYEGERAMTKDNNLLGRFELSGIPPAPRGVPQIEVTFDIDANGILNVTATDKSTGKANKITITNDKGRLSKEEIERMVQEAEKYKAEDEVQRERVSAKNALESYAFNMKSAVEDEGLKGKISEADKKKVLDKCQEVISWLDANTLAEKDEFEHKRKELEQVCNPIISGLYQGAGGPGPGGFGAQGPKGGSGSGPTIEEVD

other: band density of cell-free experiment (ratios to HSP90α), DMSO group set as 1.0: 1.3
Substance: wild-type human HSP90α (Flag-tagged, from pCMV-tag2a) (from UniProt P07900-1) Y493G; K546D

From PMC4932452
